Laboratory results reported in patent US20050118229A1, “Implantable drug delivery device for sustained release of therapeutic agent” (iMEDD, Inc., priority 2003, published 2005).

Experiments:
[1] = Hydration of lysozyme particles from cylindrical capsule-like microporous membrane packet (FIG. 2); type: physicochemical
Method: FIG. 6 provides hydration results for a device utilizing the three-dimensional capsule-like embodiment of the microporous membrane (see FIG. 2). For this experiment, a section of Whatman 1PS Phase Separator membrane was formed into a cylinder and sealed lengthwise and at both ends. The resulting cylinder was 10 mm in length and 4 mm in diameter (125 mm^2 membrane area). The cylinder was filled with approximately 1.4 mg of solid lysozyme having an average particle size of 90 micrometers combined with approximately 125 μl of the water-immiscible solvent perfluorodecalin,
The particle-filled cylinder described above was placed in a well containing 1.5 milliliters of phosphate buffered saline. A series of 70 μl samples were removed from the well at various time intervals. These samples were analyzed, and the results in FIG. 6 are the summation of mass hydrated as a function of time. Approximately 2.6 μg of lysozyme per day (i.e., 0.021 μg/mm^2) was hydrated after a nine-day delay. This observed rate is a factor of four less than the hydration rate observed in the previously discussed planar membrane experiments; however, because the entire membrane area was not active for the cylinder-shaped membrane, the release per unit area data is in reasonable agreement bwtween the two experiments. Thus, the data shown in FIGS. 4-6 provide a clear indication that the devices shown in FIGS. 1 and 2 are capable of providing the long-term zero-order release desired for an implantable drug-delivery device.

[2] = Hydration of lysozyme particles through planar microporous membrane (dual sub-chamber device of FIG. 1); type: physicochemical
Description: The data presented in FIG. 3 is illustrative of zero-order hydration of the surrogate molecule lysozyme using the planar version of the microporous membrane shown in FIG. 1. In this experiment, three identical acrylic chambers were used, each chamber including two subchambers separated by a planar microporous membrane. The microporous membrane was a Whatman 1PS Phase Separator having a diameter of […] (area=113 mm^2).
The lower portion of the chamber (i.e., the lower sub-chamber) was filled with 2.7 milliliters of the water-immiscible solvent, perfluorodecalin. Suspended in this solvent were 20 mg of solid lysozyme particles having an average particle size of 90 micrometers. The range of particle sizes was 75 to 105 micrometers. […] The upper portion of the chamber (i.e., the upper sub-chamber) contained 0.3 milliliters of phosphate buffered saline solution. A stirring bar was placed in the lower sub-chamber of each device to agitate the solvent at ambient temperature during the fifty-two day test period. After thirty-seven days, stirring was stopped to determine whether or not agitation had any effect on the hydration rate. The buffer solution in the upper sub-chamber of each device was removed each day and replaced with a fresh supply of solution. The lysozyme content of the upper sub-chamber samples was analyzed periodically to determine the quantity of lysozyme material that had dissolved in a one-day time period. The daily mass of lysozyme that was present in the upper sub-chamber was added to the sum of the previous days, thus the data in FIG. 3 represents the total mass of hydrated lysozyme.
The effect of longer release periods is substantially equivalent to determining the release rate with decreasing amounts of lysozyme present in the device enclosure. To determine release variations over longer periods of time, additional planar-membrane, dual-chamber experiments were conducted using different initial amounts of lysozyme loaded, i.e., suspended, in the perfluorodecalin used to fill the lower sub-chamber. […] These average hydration rates are plotted in FIG. 5 as a function of the amount of mass loaded (100%=20 mg).

lysozyme
lysozyme hydrated per day ([1]; approx. 1.4 mg lysozyme in approx. 125 μl perfluorodecalin, cylinder 125 mm^2 Whatman 1PS, 1.5 ml PBS): Approximately 2.6 μg per day
factor by which rate is less than the planar membrane hydration rate ([1]; cylinder versus planar membrane experiments): four
delay before hydration ([1]; cylinder-shaped membrane): nine
lysozyme hydrated per membrane area ([1]; cylinder-shaped membrane, 125 mm^2 membrane area): ~0.021 μg/mm^2
hydration rate relative to its original value ([2]; 2 mg loaded (10% of 20 mg)): 83%
hydration rate ([2]; 2 mg suspended lysozyme, planar membrane): 7.7 micrograms/day
hydration rate ([2]; 5 mg suspended lysozyme, planar membrane): 8.9 micrograms/day
lysozyme mass hydrated ([2]; 20 mg loaded, over the fifty-two day testing period): 2%
initial delay before hydration ([2]; 20 mg lysozyme loaded, planar membrane): eight to fourteen
average hydration rate per membrane area ([2]; 20 mg lysozyme loaded, planar membrane area 113 mm^2): 0.082 ug/day/mm^2
average hydration rate ([2]; 20 mg solid lysozyme particles loaded in perfluorodecalin, planar Whatman 1PS membrane, PBS, ambient temperature, 52 day test): 9.3 micrograms per day
decrease of hydration rate ([2]; during the time the mass of lysozyme decreases by 80%): 4%
